In article PMC9045395, “Assembly and Functional Role of PACE Transporter PA2880 from Pseudomonas aeruginosa” (Microbiology Spectrum, 2022):

Assays:
PA2880 = target: T1, PA2880 (Pseudomonas aeruginosa, UniProt Q9HZW7); experiment: native mass spectrometry (LILBID-MS); conditions: 200 mM ammonium acetate, 0.02% DDM; binding increases dimer population; proton-coupled transport substrate
T1 construct: full length, C-terminal TEV site, eGFP (A206K) and Strep-tag; also tested without eGFP in native MS; expressed in Pseudomonas stutzeri; purified in DDM; dimer

[1] = target: the molecule itself; experiment: native MS; LILBID-MS; protein in 200 mM ammonium acetate with 0.02% (wt/vol) DDM, pH 8; monomer to dimer; some samples with chlorhexidine up to a substrate/protein molar ratio of 8 (more dimer)
[2] = target: the molecule itself; experiment: native MS; LILBID-MS; protein in 200 mM ammonium acetate with 0.02% (wt/vol) DDM, pH series from 5 to 9; monomer to dimer; dimer ratio from deconvoluted zero-charge spectra
native MS = target: the molecule itself; experiment: native MS

Molecule: N=C(NCCCCCCNC(=N)NC(=N)Nc1ccc(Cl)cc1)NC(=N)Nc1ccc(Cl)cc1 [chlorhexidine]
- native mass spectrometry (LILBID-MS) (PA2880): The LILIBID-MS results showed that chlorhexidine was bound to PA2880

B1: PA2880 fused with enhanced green fluorescent protein (PA2880-eGFP), wild type (natural protein)
chain: MTIQPDFNDEPGAFAMTHTHTALDKTLKERIFHALAFEGLAVLLTAPVLSLVMNKPLAHMGALTLMFSTVAMLWNMLFNSLFDRAQRRMGFQRTLQVRVLHAMLFELGLIVVLVPLAAWWLSIGLVEAFLLDMGLILFFLPYTMAFNWSYDVLRARLVESRQAKAAGCDAG
notes: also called wt; wild-type PA2880 with fused eGFP; source: Pseudomonas stutzeri (pL2020-PA2880-eGFP), purified (Strep XT column, SEC, in DDM); not shown: eGFP (A206K variant), C-terminal, kept
- stoichiometry N [1]: 2

B2: PA2880 E38Q variant (natural protein, Pseudomonas aeruginosa strain PAO1, UniProt Q9HZW7 1-171, looked up)
chain: MTIQPDFNDEPGAFAMTHTHTALDKTLKERIFHALAFQGLAVLLTAPVLSLVMNKPLAHMGALTLMFSTVAMLWNMLFNSLFDRAQRRMGFQRTLQVRVLHAMLFELGLIVVLVPLAAWWLSIGLVEAFLLDMGLILFFLPYTMAFNWSYDVLRARLVESRQAKAAGCDAG
notes: PACE family transporter PA2880 of Pseudomonas aeruginosa strain PAO1 with E38Q; source: purified; not shown: eGFP (A206K variant), C-terminal, kept
- stoichiometry N [2]: 2

B3: wild-type PA2880 without fused eGFP (natural protein)
chain: MTIQPDFNDEPGAFAMTHTHTALDKTLKERIFHALAFEGLAVLLTAPVLSLVMNKPLAHMGALTLMFSTVAMLWNMLFNSLFDRAQRRMGFQRTLQVRVLHAMLFELGLIVVLVPLAAWWLSIGLVEAFLLDMGLILFFLPYTMAFNWSYDVLRARLVESRQAKAAGCDAG
notes: also called PA2880 without eGFP
- stoichiometry N (native MS): 2
